The target in data set [1] is T1, STING C-terminal region (hSTING-C) (human, UniProt Q86WV6 152-379). Kind of data set: fluorescence anisotropy. For orientation: Polarisation of emitted light reports the rotation of a fluorescent probe.
In data set [2] the target is T1, STING C-terminal region (hSTING-C). Kind of data set: fluorescence anisotropy. This is another data set of the same source.
Data set [3] has as its target T2, STING C-terminal region (UniProt Q86WV6 181-379). Kind of data set: SPR.
Data set [4] concerns the target T2, STING C-terminal region. Kind of data set: pull-down.

Read-outs that look alike come from different tables or passages of the source.

These results are taken from publication PMC3881179.

T2 sequence (Q86WV6 181-379): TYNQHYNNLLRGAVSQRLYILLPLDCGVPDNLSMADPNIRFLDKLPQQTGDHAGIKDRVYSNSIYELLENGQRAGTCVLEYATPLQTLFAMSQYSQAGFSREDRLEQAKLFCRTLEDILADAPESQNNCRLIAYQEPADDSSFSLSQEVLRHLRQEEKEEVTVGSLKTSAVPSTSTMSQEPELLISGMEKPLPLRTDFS
T1 sequence (Q86WV6 152-379): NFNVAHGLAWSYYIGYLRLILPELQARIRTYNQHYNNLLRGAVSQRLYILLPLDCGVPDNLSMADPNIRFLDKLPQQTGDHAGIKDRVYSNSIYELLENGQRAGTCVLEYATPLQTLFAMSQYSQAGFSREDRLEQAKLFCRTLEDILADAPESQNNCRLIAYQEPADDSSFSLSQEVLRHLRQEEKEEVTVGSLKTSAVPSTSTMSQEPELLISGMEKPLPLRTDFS

B1: dsDNA 18-mer (dsDNA)
DNA 1: TACAGATCTACTAGTGAT
DNA 2: ATCACTAGTAGATCTGTA
Consider B1, for which, in data set [1], the Kd stood at 337 ± 26 µM.

B2: dsDNA 30-mer (dsDNA)
DNA 1: TACAGATCTACTAGTGATCTATGACTGATC
DNA 2: GATCAGTCATAGATCACTAGTAGATCTGTA
In data set [2], B2 came in with a Kd of 247 ± 38 µM.

B3: dsDNA90 (dsDNA)
DNA 1: TACAGATCTACTAGTGATCTATGACTGATCTGTACATGATCTACATACAGATCTACTAGTGATCTATGACTGATCTGTACATGATCTACA
DNA 2: TGTAGATCATGTACAGATCAGTCATAGATCACTAGTAGATCTGTATGTAGATCATGTACAGATCAGTCATAGATCACTAGTAGATCTGTA
On to B3, for which, in the data set with STING C-terminal region [3], the equilibrium dissociation constant (Kd) was 13.7 µM.

B4: ssDNA90 (ssDNA)
DNA: TACAGATCTACTAGTGATCTATGACTGATCTGTACATGATCTACATACAGATCTACTAGTGATCTATGACTGATCTGTACATGATCTACA
B4: the binding result in the data set with STING C-terminal region [4] is “binds”.

As usually defined, the Kd is the equilibrium constant for the complex coming apart. Higher therefore signals lower affinity.
